What was measured:
[1] = biological target: Hbl B in culture supernatant of B. cereus strain MHI 1532 (Bacillus cereus strain MHI 1532 (endogenous in culture supernatant)) (UniProt P80172); assay: co-IP
[2] = biological target: recombinant Hbl L1 (haemolysin BL component L1) (Bacillus cereus strain F837/76); assay: SPR; BIACORE 3000; rHbl L1 amine-coupled to CM5 chip (560 RU); rHbl L2 or B injected 7.8 nM to 2 uM at 30 uL/min, 20 °C, in PBS, 1 mM DTT, 0.005% Tween 20; KD from steady state, one-site model, mean of three (L2) or four (B) experiments; L1 + B did not reach full saturation at lower concentrations, KD likely slightly underestimated
[3] = biological target: recombinant Hbl B (haemolysin BL binding component B) (Bacillus cereus strain F837/76) (UniProt P80172); assay: SPR; BIACORE 3000; rHbl B amine-coupled to CM5 chip (500 RU); rHbl L2 injected 31.2 nM to 4 uM at 30 uL/min, 20 °C, in PBS, 1 mM DTT, 0.005% Tween 20; KD from steady state, mean of four experiments

## Hbl L1 in culture supernatant of B. cereus strain MHI 1532 (natural protein)
[1]
  percent in elution fraction: 180%
  percent in sample flow-through: < 5%
  percent in wash fraction: < 5%

## Hbl L2 in culture supernatant of B. cereus strain MHI 1532 (natural protein)
[1]
  percent in elution fraction: 29%
  percent in sample flow-through: 51%
  percent in wash fraction: 20%

## recombinant Hbl B (haemolysin BL binding component B) (from UniProt P80172 32-375) (natural protein)
[2]
  Kd: 470 nM

## recombinant Hbl L2 (haemolysin BL component L2) (natural protein)
[3]
  Kd: 3400 nM
[2]
  Kd: 150 nM
